{
  "source": "patent US10323085B2",
  "about": "“Methods of treating fibromyalgia” (Teva Pharmaceuticals International GmbH, priority 2008, dated 2019)",
  "key": {"rats": {"system": "rats", "assay": "Indicators of physical or psychological dependence, long term observation of dosed animals", "details": "rat, in vivo"}, "adrenomedullin": {"molecular_target": "T1, adrenomedullin (Homo sapiens, UniProt P35318)", "T1 sequence (P35318 95-146 limits assumed)": "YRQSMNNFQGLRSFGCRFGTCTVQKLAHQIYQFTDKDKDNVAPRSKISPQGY", "assay": "Solution competition by Biacore (specificity)", "format": "binding", "details": "pre-incubated with an excess of adrenomedullin", "from_the_text": "(§1) We determined the specificity of antibody G1 to human or rat CGRP by using the Biacore chip to “probe” the free concentration of a premixed complex of mAb+peptide."}, "amylin": {"molecular_target": "T2, amylin (Homo sapiens, UniProt P10997)", "T2 sequence (P10997 34-70 limits assumed)": "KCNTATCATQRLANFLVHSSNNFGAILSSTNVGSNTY", "assay": "Solution competition by Biacore (specificity)", "format": "binding", "details": "pre-incubated with an excess of amylin", "from_the_text": "as §1"}, "rat CGRP": {"system": "rat CGRP", "assay": "Solution competition by Biacore (specificity)", "format": "binding", "details": "pre-incubated with rat CGRP", "from_the_text": "as §1"}, "calcitonin": {"molecular_target": "T3, calcitonin (Homo sapiens, UniProt P01258)", "T3 sequence (P01258 85-116 limits assumed)": "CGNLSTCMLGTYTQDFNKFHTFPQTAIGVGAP", "assay": "Solution competition by Biacore (specificity)", "format": "binding", "details": "pre-incubated with an excess of calcitonin", "from_the_text": "as §1"}, "human CGRP": {"system": "human CGRP", "assay": "Solution competition by Biacore (specificity)", "format": "binding", "details": "pre-incubated with human CGRP", "from_the_text": "as §1"}, "CGRP": {"system": "CGRP", "assay": "Neurogenic skin flare rat model (saphenous nerve stimulation, laser Doppler blood flow)", "format": "in vivo", "details": "for start of significant decrease in blood flow response post dose: intravenous; for development of neurogenic flare in vivo: rat", "method": "Using a neurogenic skin flare rat model the efficacy of G1 was tested for its ability to block CGRP effect in vivo. The saphenous nerve in the rat is electrically stimulated causing CGRP release from nerve endings and leading to vasodilation, the resulting changes in blood flow can be measured using laser Dopler methods.\nChanges in blood flow parameters were expressed as the area under the curve (AUC, change in arbitrary Doppler flux units multiplied by time). CGRP receptor antagonist CGRP8-37 (400 nmol/kg, i.v.) was used as a positive control to validate the specificity of the model (data not shown). To determine the effect of G1 prior to dosing for each animal, the baseline blood flow response to stimulation was established with two saphenous nerve stimulations each 30 minutes apart. Rats were treated with G1 after the blood flow response of the second stimulation had returned to baseline levels (approximately 10 minutes post stimulation) and an additional four stimulations at 30 minute intervals were performed."}, "[1]": {"system": "CGRP1-receptor in SK-N-MC cells", "assay": "Binding assay: blocking human α-CGRP from binding to the CGRP1-receptor in SK-N-MC cells", "details": "FIG. 4"}, "[2]": {"molecular_target": "T4, 25-37 human α-CGRP fragment (Homo sapiens, UniProt P06881)", "T4 construct": "(CGRP 25-37)", "assay": "Alanine scan of C-terminal CGRP fragment (CGRP 25-37) by Biacore, epitope identification", "format": "binding", "details": "25° C., Biacore 3000", "method": "Interaction analysis was conducted at 25° C. on a Biacore 3000™ system equipped with streptavidin-coated (SA) sensor chips (Biacore AB, Uppsala, Sweden) using a standard Biacore running buffer (HBS-P). […] Each amino acid between position 27-37 was then mutated individually to alanine and expressed the fold loss in affinity compared to the wild-type fragment. N-biotinylated fragments were captured on individual flow cells at low levels (typically 100 response units) to provide the reaction surfaces, while an unmodified flow cell served as a reference channel. Purified Fab fragments of antibody G1 were generated. Fab fragments were titrated over the chip using 1 μM as the top concentration of a two-fold dilution series. Association and dissociation phases were monitored at 100 μl/min for 1 minute and 5 minutes respectively. Surfaces were regenerated with a mixture of 35% ethanol+25 mM NaOH+0.5M NaCl."}, "MRMT-1 injected rats [3]": {"system": "MRMT-1 injected rats", "assay": "Rota rod test for motor impairment in the bone cancer pain model", "format": "in vivo, rat", "details": "MRMT-1 injected rats treated at day 9 post surgery", "from_the_text": "A further end point tested in the bone cancer pain model was ambulation (by rotarod). The test is to obtain a measurement of locomotor impairment comparing antibody treated with control animals, each subjected to the same test under the same conditions. The rota rod test consists of 4 rotateable drums divided by flanges with a motor-driven drum accelerated (Ugo Basile, Comerio, VA, Italy). For a given trial, a rat is placed on the rotating rod and the rotation speed is accelerated from 4 to 16 rpm in 2 min. The time of maximal performance is typically set at 120 sec. Each animal generally receives three trials per day, at 1 hr intervals, for several consecutive days post-surgery. The latency to fall off the rod is represented as mean of the three trials."}, "MRMT-1 injected rats [4]": {"system": "MRMT-1 injected rats", "assay": "Bone cancer pain model (MRMT-1), mechanical hypersensitivity to von Frey stimuli", "format": "in vivo, rat", "details": "IV 10 mg/kg at day 9", "method": "Tumour cells used are syngeneic MRMT-1 rat mammary gland carcinoma cells donated from the Novartis Institute (London). The cells are cultured in RPMI 1640 (Gibco) with 10% foetal bovine serum (FCS), 1% L-glutamine 2% penicillin/streptomycin (Gibco). Two brief washes are carried out with 0.1% w/v trypsin to release those cells which adhere to the flask, and then quenched with an equal volume of 10% FCS, followed by centrifugation of the solution for 3 minutes at 1200 rpm. The pellet is washed and resuspended in Hanks medium, and the concentration of cells calculated using a Haemocytometer, with trypan blue staining to determine the number of dead MRMT-1 cells. The final concentration of 3×10^3 cells was then obtained by diluting the solution according to the number of cells seen. The final solution was kept on ice until time of injection.\nMale Sprague-Dawley rats weighing close to 170 g at time of surgery were used to generate the cancer model. Anaesthesia was induced in the rats using halothane or isoflurane (1.5-2%) 66% N2O and 33% O2, the leg was shaved over the appropriate area and disinfected with chlorhexidine (Animalcare Ltd, UK.). A small incision in order to expose the anterior-medial surface of the distal end of the tibia was made. A hole was bored in the periosteum using a 0.7 mm dental drill, through which a 2 cm polythene tubing was fed 1 cm into the intra-medullar cavity of the tibia. Using a Hamilton syringe the pre-prepared 10 μl of 3×10^3 MRMT-1 cells were injected through the tubing into the cavity. The tubing was then removed and the hole plugged using bone restorative material (IRM, Dentsply USA). The wound was then irrigated with 0.9% saline and closed with a metal clip. The sham animals were operated upon using the same procedure but injected with 10 μl of Hank's solution alone. The animals were placed in a thermoregulated recovery box until such time that they were able to be placed back in their housing cages.\nTesting behaviour towards mechanical stimuli uses von Frey filaments (North Coast Medical Inc., USA) to the plantar surface of both the ipsilateral and contralateral hindpaw. The rats were placed in a Perspex cubicle with a mesh floor and allowed to acclimatise for 10 minutes. Each von Frey was applied 10 times to each hindpaw alternating between the ipsilateral and contralateral, for duration of 2-3 seconds each time. […] A nocifensive response (a lift) is defined as a brisk withdrawal of the hindpaw and the number of lifts for each paw at each von Frey are recorded (maximum of 10) and expressed as a percentage response. An assessment of the efficacy of rodent anti-CGRP antibody G2 in attenuating hypersensitivity to a wide variety of static mechanical, cooling and integrated stimuli was carried out as well as the background basal pain behaviours in this validated model of cancer induced bone pain. The responses measured are attenuated by standard analgesic treatments such as morphine and gabapentin. All measures were made by the same scientist in a blind fashion—blinded to the identity of the compound/control and to the treatment of the animal.\nG2-was given IV at 10 mg/kg at day 9 and rats were tested at 2 hrs and then on days 10, 11, 12 and then 14-18 days post treatment (FIG. 1)."}},
  "data": [
    {"molecule": "G1: humanized IgG2Δa monoclonal anti-CGRP antagonist antibody from expression vectors ATCC PTA-6867 and PTA-6866; variable regions SEQ ID Nos. 1 and 2", "values": [
      {"measurement": "CNS penetration", "setting": "rats", "result": "Neither antibody G1 nor antibody G2 demonstrate CNS penetration"},
      {"measurement": "complex formation with peptide", "setting": "adrenomedullin", "result": "did not form a complex"},
      {"measurement": "complex formation with peptide", "setting": "amylin", "result": "did not form a complex"},
      {"measurement": "Biacore response after pre-incubation with peptide", "setting": "rat CGRP", "result": "fully blocked"},
      {"measurement": "complex formation with peptide", "setting": "calcitonin", "result": "did not form a complex"},
      {"measurement": "Biacore response after pre-incubation with peptide", "setting": "human CGRP", "result": "fully blocked"},
      {"measurement": "start of significant decrease in blood flow response post dose", "setting": "CGRP; 1 mg/kg", "result": 120, "unit": "min"},
      {"measurement": "start of significant decrease in blood flow response post dose", "setting": "CGRP; 10 mg/kg", "result": 90, "unit": "min"},
      {"measurement": "inhibits neurogenic flare in the skin starting from, post-treatment", "setting": "CGRP; FIG. 9, intravenous administration", "result": 90, "unit": "min"},
      {"measurement": "development of neurogenic flare in vivo", "setting": "CGRP", "result": "prevent the development of neurogenic flare"},
      {"measurement": "inhibition of binding of α-CGRP to the CGRP1 receptor", "setting": "[1]", "result": "inhibits the binding"},
      {"measurement": "affinity of N-biotinylated 25-37 human α-CGRP fragment compared with full-length N-biotinylated human α-CGRP", "setting": "[2]", "result": "same affinity"}
    ]},
    {"molecule": "G2: anti-rat CGRP mouse monoclonal antibody (Wong H C et al. Hybridoma 1993); variable regions SEQ ID Nos. 19 and 20; murine tool (antibody, V domains shown, Synthetic polypeptide, Antibody G2 heavy chain variable region; Synthetic polypeptide, Antibody G2 light chain variable region, anti-rat CGRP mouse monoclonal antibody (Wong H C et al. Hybridoma 1993); murine tool) VH: EVQLQQSGPELVKPGASVKMSCKASGYTFTSSVMHWVKQKPGQGLEWIGYINPYNDGTKYNEKFKGKATLTSDKSSSTAYMELSSLTSEDSAVYYCAKGGNDGYWGQGTTLTVSS VL: EIVLTQSPTTMAASPGEKITITCSASSSISSIYLHWYQQKPGFSPKVLIYRASNLASGVPARFSGSGSGTSYSLTIGTMEAEDVATYYCQQGSTIPFTFGSGTKLEIK", "values": [
      {"measurement": "CNS penetration", "setting": "rats", "result": "Neither antibody G1 nor antibody G2 demonstrate CNS penetration"},
      {"measurement": "development of neurogenic flare in vivo", "setting": "CGRP", "result": "prevent the development of neurogenic flare"},
      {"measurement": "latency to fall from the rotarod during forced ambulation vs vehicle group", "setting": "MRMT-1 injected rats [3]", "result": "No differences were found"},
      {"measurement": "hypersensitivity to von Frey 15 g vs vehicle treated group", "setting": "MRMT-1 injected rats [4]; 2 and 3 days after drug administration", "result": "significance seen"},
      {"measurement": "hypersensitivity to von Frey 15 g vs vehicle treated group", "setting": "MRMT-1 injected rats [4]; 2 hours post-injection", "result": "reduction in hypersensitivity"},
      {"measurement": "hypersensitivity to von Frey 15 g vs vehicle treated group", "setting": "MRMT-1 injected rats [4]; 6 days after G2 administration", "result": "reductions were lost"},
      {"measurement": "Withdrawal frequencies to von Frey 8 g vs vehicle treated group", "setting": "MRMT-1 injected rats [4]; day 14 (day 5 post-G2 injection)", "result": "no discernible difference"},
      {"measurement": "Withdrawal frequencies to von Frey 8 g vs vehicle treated group", "setting": "MRMT-1 injected rats [4]; days 11 and 12 (days 2 and 3 after injection)", "result": "significantly reduced"},
      {"measurement": "Withdrawal frequencies to von Frey 8 g", "setting": "MRMT-1 injected rats [4]; two hours after injection", "result": "reduced"}
    ]}
  ]
}
